Literature values as cited in patent US8765467B2, “Multicellular compositions of pluripotent human embryonic stem cells and cancer cells” (Technion Research and Development Foundation Ltd., priority 2003, dated 2014).

Assays:
[1] = test system: tumors; details: tumors grown in immunocompromised mice; literature (Folkman 2002)
[2] = test system: human B-lineage acute lymphoblastic leukemia (B-ALL); details: human B-ALL engrafted within marrow of immunodeficient mice; literature (Eisterer et al 2002)

B1: Endostatin (protein, UniProt P39060 1572-1754, looked up)
Endostatin: HSHRDFQPVLHLVALNSPLSGGMRGIRGADFQCFQQARAVGLAGTFRAFLSSRLQDLYSIVRRADRAAVPIVNLKDELLFPSWEALFSGSEGPLKPGARIFSFDGKDVLRHPTWPQKSVWHGSDPNGRRLTESYCETWRTEAPSATGQASSLLGGRLLGQSAASCHHAYIVLCIENSFMTASK
modifications: Endostatin
notes: antiangiogenic agent cited from the literature
anti-angiogenic activity [1]: potent anti-angiogenic agent | inhibitory effect [2]: did not exhibit any inhibitory effect
